Test results reported in PMC10576003 (Nature Communications, 2023).

B1: nanobody H2 (Nb_H2) (VHH)
VHH: QGQLVESGGGLVQPGGSLRLSCADAGSIFNKFPMAWYRQAPGKERELVARISSGGSTNYADFVKGRFTISRDNAKSTLYLQMNSLKPEDTAMYYCARIINSASNIAYWGQGTRVTVSA
notes: alpaca-derived nanobody selected by phage display against MHAS2168; they are in PDB 8PNL chain B (and chain D); MBP and His-tag removed with 3C protease; not shown: His10, N-terminal, cleaved
B2: MHAS2168 (natural protein, Mycobacterium hassiacum)
chain: MSAFPQTPNRLIRPRRTSRGIAISAGGLAVLLGALDTYVVVSIVTDIMRDVGIAVNQIQRVTPIITGYLLGYIAAMPLLGRASDRFGRKLLIQISLAGFALGSVITALATNLDVLVAGRVIQGAASGALLPVTLALAADLWATHKRAAVLGGVGAAQELGAVLGPIYGIFVVWLFHHWQAVFWVNVPLALIAMVLIHISLPPRVRTEEPQRVDVTGGLLLALALGLATIGLYNAEPDGKQVLPEYGPPLIIGAVIAAVAFLVWERFARTRLLDPAGVRFRPFLIALLVSLVTGGALMVTLVNVELFGQGVLGLDQDEAVFLLARFLIALPVGALLGGWIATRVGDRAVTAVGLLIAAGGFYLIAQWPADVLESRHDLGFVSLPTLDTDLAIAGFGLGLVIAPLTSAALRVVPAAQHGIASAAVVVARMIGMLIGIAALSAWGLYRFNQYLKEQLAALPPAPADFPGGQMAGQMMRLRTATVQAYVLQYGEIFAITAGLCVFGAVLGLFIAGRREHAEESADAVDGVSNARDRAPSA
notes: C-terminal fusion: 3C protease cleavage site, GFP, His10; residues of the 3C site may be left after cleavage; also called Rv1410 homologue from Mycobacterium hassiacum; MHAS2168^OUT; not shown: GFP, C-terminal, cleaved; His10, C-terminal, cleaved

How the values were obtained:
[1] = target: B2; experiment: crystal structure; […]) at 20 °C; […]; conditions: both partners purified
[2] = target: T1, megabody H2 (Mb_H2) ( | alpaca); experiment: cryo-EM structure; conditions: both partners purified
T1 construct: the first thirteen N-terminal residues that form the β-strand A of a nanobody, encoded by the vector pBXMBQ; not shown: His10, C-terminal, cleaved

Binder | binding result [1] | binding result [2]
B1 | binds | –
B2 | – | binds
